According to US20240132578A1:

Tests used:
Assay in all cases: cell-based or functional assay
[1] = molecular target: HIV-1 92BR020 Env (HIV-1 isolate 92BR020 (clade B))
[2] = molecular target: HIV-1 93UG077 Env (HIV-1 isolate 93UG077 (clade A))
[3] = molecular target: HIV-1 APV17 Env (HIV-1 isolate APV17 (clade B))
[4] = molecular target: HIV-1 envelope glycoprotein (Env) of isolate 92TH021 (HIV-1)
[5] = molecular target: HIV-1 envelope glycoprotein (Env) of isolate MGRM-C-027 (HIV-1)
[6] = molecular target: HIV-1 APV17 envelope glycoprotein (Env) on virus (HIV-1, clade B, isolate APV17)
[7] = molecular target: HIV-1 NL43 envelope glycoprotein (Env) on virus (HIV-1, clade B, isolate NL43)
[8] = molecular target: HIV-1 92RW020 envelope glycoprotein (Env) on virus (HIV-1, clade A, isolate 92RW020)
[9] = molecular target: HIV-1 JR-CSF Env S306A (HIV-1 (isolate JR-CSF, clade B)) (UniProt P20871)
[10] = molecular target: HIV-1 MGRM-D-018 Env (pseudovirus) (HIV-1)
[11] = molecular target: HIV-1 APV13 Env (pseudovirus) (HIV-1)
[12] = molecular target: HIV-1 92BR020 Env (pseudovirus) (HIV-1)
[13] = molecular target: HIV-1 92UG024 Env (pseudovirus) (HIV-1)
[14] = molecular target: HIV-1 MGRM-D-001 Env (pseudovirus) (HIV-1)
[15] = molecular target: HIV-1 93IN905 Env (pseudovirus) (HIV-1)
[16] = molecular target: HIV-1 JRFL Env (pseudovirus) (HIV-1)
aMLV envelope protein = molecular target: aMLV envelope protein
[17] = molecular target: HIV-1 MGRM-C-027 envelope glycoprotein (Env) (HIV-1)
[18] = molecular target: HIV-1 MGRM-D-018 envelope glycoprotein (Env) (HIV-1)
[19] = molecular target: HIV-1 MGRM-C-028 envelope glycoprotein (Env) (HIV-1)
[20] = molecular target: HIV-1 92UG024 envelope glycoprotein (Env) (HIV-1)
[21] = molecular target: HIV-1 NL43 envelope glycoprotein (Env) (HIV-1)
[22] = molecular target: HIV-1 JR-CSF Env N241A (HIV-1 (isolate JR-CSF)) (UniProt P20871)
[23] = molecular target: HIV-1 Env of pseudovirus ZM249 (HIV-1)
[24] = molecular target: HIV-1 Env of pseudovirus REJ04541 (HIV-1)
[25] = molecular target: HIV-1 MGRM-C-026 envelope glycoprotein (Env), clade C pseudovirus (HIV-1)
[26] = molecular target: HIV-1 JRFL envelope glycoprotein (Env), clade B pseudovirus (HIV-1)
[27] = molecular target: HIV-1 Env of isolate MG RM-D-018 (subtype D) (HIV-1)
[28] = molecular target: HIV-1 Env of isolate MG RM-D-022 (subtype D) (HIV-1)
[29] = molecular target: HIV-1 JR-CSF Env R304A (HIV-1 (isolate JR-CSF, clade B)) (UniProt P20871)
[30] = molecular target: HIV-1 Env of isolate 92TH021 (clade AE) (HIV-1)

Sequence of 5329_C19 (PGT-136) (antibody) (VH): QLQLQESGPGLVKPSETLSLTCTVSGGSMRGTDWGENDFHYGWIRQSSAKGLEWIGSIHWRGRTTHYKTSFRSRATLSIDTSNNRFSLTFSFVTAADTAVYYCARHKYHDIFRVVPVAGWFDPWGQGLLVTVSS
Sequence of 5329_C19 (PGT-136) (antibody) (VL): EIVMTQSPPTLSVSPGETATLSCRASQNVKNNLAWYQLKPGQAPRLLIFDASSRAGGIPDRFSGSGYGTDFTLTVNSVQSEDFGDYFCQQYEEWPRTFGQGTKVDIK
Sequence of 1443_C16 (PG16) (TCN-116) (antibody) (VH): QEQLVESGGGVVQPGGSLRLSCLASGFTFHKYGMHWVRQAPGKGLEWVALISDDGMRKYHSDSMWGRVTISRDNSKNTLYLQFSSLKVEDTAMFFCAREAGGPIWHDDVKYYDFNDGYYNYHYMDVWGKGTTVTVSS
Sequence of 1443_C16 (PG16) (TCN-116) (antibody) (VL): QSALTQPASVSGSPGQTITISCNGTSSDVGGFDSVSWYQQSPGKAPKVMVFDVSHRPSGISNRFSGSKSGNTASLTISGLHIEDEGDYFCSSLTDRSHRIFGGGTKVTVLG

4838_L06 (PGT-121) (antibody)
Neutralization IC80 [1]: 0.0532 µg/mL | Neutralization IC90 [1]: 0.101 µg/mL | Neutralization IC90 [2]: 0.369 µg/mL | Neutralization IC95 [2]: 0.74 µg/mL | Neutralization IC80 [3]: 0.371 µg/mL | Neutralization IC90 [3]: 0.799 µg/mL | Neutralization IC95 [3]: 1.55 µg/mL

5141_B17 (PGT-126) (antibody)
Neutralization IC80 [4]: 1.62 µg/mL | Neutralization IC90 [4]: 6.91 µg/mL | Neutralization IC95 [4]: > 10 µg/mL | neutralization IC50 [4]: 0.115 µg/mL | Neutralization IC80 [5]: > 10 µg/mL | Neutralization IC90 [5]: > 10 µg/mL | Neutralization IC95 [5]: > 10 µg/mL | neutralization IC50 [5]: 1.14 µg/mL

4877_D15 (PGT-122) (antibody)
Neutralization IC80 [6]: 1.76 µg/mL | Neutralization IC90 [6]: 3.58 µg/mL | Neutralization IC95 [6]: 6.92 µg/mL | neutralization IC50 [6]: 0.522 µg/mL | Neutralization IC80 [7]: > 10 µg/mL | Neutralization IC90 [7]: > 10 µg/mL | Neutralization IC95 [7]: > 10 µg/mL | neutralization IC50 [7]: > 10 µg/mL | Neutralization IC80 [8]: 0.0407 µg/mL | Neutralization IC90 [8]: 0.113 µg/mL | Neutralization IC95 [8]: 0.289 µg/mL | neutralization IC50 [8]: 0.0072 µg/mL

5123_A06 (PGT-125) (antibody)
Fold IC50 increase relative to wild-type [9]: 1.2 fold | Neutralization by PGT-125, IC50 [10]: 0.0382 µg/mL | Neutralization by PGT-125, IC80 [10]: 0.144 µg/mL | Neutralization by PGT-125, IC90 [10]: 0.339 µg/mL | Neutralization by PGT-125, IC95 [10]: 0.892 µg/mL | Neutralization by PGT-125, IC50 [11]: 0.0128 µg/mL | Neutralization by PGT-125, IC80 [11]: 0.0414 µg/mL | Neutralization by PGT-125, IC90 [11]: 0.0821 µg/mL | Neutralization by PGT-125, IC95 [11]: 0.154 µg/mL | Neutralization by PGT-125, IC50 [12]: 0.0214 µg/mL | Neutralization by PGT-125, IC80 [12]: 0.0738 µg/mL | Neutralization by PGT-125, IC90 [12]: 0.156 µg/mL | Neutralization by PGT-125, IC95 [12]: 0.323 µg/mL | Neutralization by PGT-125, IC50 [13]: > 10 µg/mL | Neutralization by PGT-125, IC80 [13]: > 10 µg/mL | Neutralization by PGT-125, IC90 [13]: > 10 µg/mL | Neutralization by PGT-125, IC95 [13]: > 10 µg/mL | Neutralization by PGT-125, IC50 [14]: 2.31 µg/mL | Neutralization by PGT-125, IC80 [14]: > 10 µg/mL | Neutralization by PGT-125, IC90 [14]: > 10 µg/mL | Neutralization by PGT-125, IC95 [14]: > 10 µg/mL | Neutralization by PGT-125, IC50 [15]: 0.0137 µg/mL | Neutralization by PGT-125, IC80 [15]: 0.0494 µg/mL | Neutralization by PGT-125, IC90 [15]: 0.106 µg/mL | Neutralization by PGT-125, IC95 [15]: 0.216 µg/mL | Neutralization by PGT-125, IC50 [16]: 0.0156 µg/mL | Neutralization by PGT-125, IC80 [16]: 0.0462 µg/mL | Neutralization by PGT-125, IC90 [16]: 0.0873 µg/mL | Neutralization by PGT-125, IC95 [16]: 0.157 µg/mL

5329_C19 (PGT-136) (antibody)
Neutralization IC80 (aMLV envelope protein): > 10 µg/mL | Neutralization IC90 (aMLV envelope protein): > 10 µg/mL | Neutralization IC95 (aMLV envelope protein): > 10 µg/mL | neutralization IC50 (aMLV envelope protein): > 10 µg/mL | Neutralization IC80 [17]: > 10 µg/mL | Neutralization IC90 [17]: > 10 µg/mL | Neutralization IC95 [17]: > 10 µg/mL | neutralization IC50 [17]: > 10 µg/mL | Neutralization IC80 [18]: > 10 µg/mL | Neutralization IC90 [18]: > 10 µg/mL | Neutralization IC95 [18]: > 10 µg/mL | neutralization IC50 [18]: > 10 µg/mL | Neutralization IC80 [19]: > 10 µg/mL | Neutralization IC90 [19]: > 10 µg/mL | Neutralization IC95 [19]: > 10 µg/mL | neutralization IC50 [19]: > 10 µg/mL | Neutralization IC80 [20]: 0.619 µg/mL | Neutralization IC90 [20]: 1.96 µg/mL | Neutralization IC95 [20]: 5.97 µg/mL | neutralization IC50 [20]: 0.0915 µg/mL | Neutralization IC80 [21]: > 10 µg/mL | Neutralization IC90 [21]: > 10 µg/mL | Neutralization IC95 [21]: > 10 µg/mL | neutralization IC50 [21]: > 10 µg/mL

5343_B08 (PGT-135) (antibody)
Fold IC50 increase relative to wild-type [22]: 0.1 fold

1443_C16 (PG16) (TCN-116) (antibody)
IC50, pseudovirus neutralization (TZM-bl assay) [23]: < 0.01 µg/mL | IC50, pseudovirus neutralization (TZM-bl assay) [24]: < 0.01 µg/mL

4858_P08 (PGT-123) (antibody)
IC50, pseudovirus neutralization [25]: 0.0031 µg/mL | IC80 (pseudovirus neutralization) [25]: 0.0094 µg/mL | IC90 (pseudovirus neutralization) [25]: 0.0183 µg/mL | IC95 (pseudovirus neutralization) [25]: 0.0338 µg/mL | IC50, pseudovirus neutralization [26]: 0.0283 µg/mL | IC80 (pseudovirus neutralization) [26]: 0.0904 µg/mL | IC90 (pseudovirus neutralization) [26]: 0.178 µg/mL | IC95 (pseudovirus neutralization) [26]: 0.332 µg/mL

PGV04 (antibody)
IC50 (µg/mL), pseudovirus neutralization [27]: 17.5 µg/mL | IC50 (µg/mL), pseudovirus neutralization [28]: > 50 µg/mL

5145_B14 (PGT-127) (antibody)
Fold IC50 increase relative to wild-type [29]: 0.4 fold

1496_C09 (PG9) (TCN-109) (antibody)
Neutralization IC80 [30]: 0.448 µg/mL | Neutralization IC90 [30]: 1.07 µg/mL | Neutralization IC95 [30]: 2.43 µg/mL | neutralization IC50 [30]: 0.103 µg/mL
